From publication PMC4409540 (Nature, 2015)

Biological target: the molecule itself
Test: cryo-EM structure

B1: MBP-tagged human TRPA1 (full-length) (natural protein, UniProt O75762 1-1119, looked up)
chain: MKRSLRKMWRPGEKKEPQGVVYEDVPDDTEDFKESLKVVFEGSAYGLQNFNKQKKLKRCDDMDTFFLHYAAAEGQIELMEKITRDSSLEVLHEMDDYGNTPLHCAVEKNQIESVKFLLSRGANPNLRNFNMMAPLHIAVQGMNNEVMKVLLEHRTIDVNLEGENGNTAVIIACTTNNSEALQILLKKGAKPCKSNKWGCFPIHQAAFSGSKECMEIILRFGEEHGYSRQLHINFMNNGKATPLHLAVQNGDLEMIKMCLDNGAQIDPVEKGRCTAIHFAATQGATEIVKLMISSYSGSVDIVNTTDGCHETMLHRASLFDHHELADYLISVGADINKIDSEGRSPLILATASASWNIVNLLLSKGAQVDIKDNFGRNFLHLTVQQPYGLKNLRPEFMQMQQIKELVMDEDNDGCTPLHYACRQGGPGSVNNLLGFNVSIHSKSKDKKSPLHFAASYGRINTCQRLLQDISDTRLLNEGDLHGMTPLHLAAKNGHDKVVQLLLKKGALFLSDHNGWTALHHASMGGYTQTMKVILDTNLKCTDRLDEDGNTALHFAAREGHAKAVALLLSHNADIVLNKQQASFLHLALHNKRKEVVLTIIRSKRWDECLKIFSHNSPGNKCPITEMIEYLPECMKVLLDFCMLHSTEDKSCRDYYIEYNFKYLQCPLEFTKKTPTQDVIYEPLTALNAMVQNNRIELLNHPVCKEYLLMKWLAYGFRAHMMNLGSYCLGLIPMTILVVNIKPGMAFNSTGIINETSDHSEILDTTNSYLIKTCMILVFLSSIFGYCKEAGQIFQQKRNYFMDISNVLEWIIYTTGIIFVLPLFVEIPAHLQWQCGAIAVYFYWMNFLLYLQRFENCGIFIVMLEVILKTLLRSTVVFIFLLLAFGLSFYILLNLQDPFSSPLLSIIQTFSMMLGDINYRESFLEPYLRNELAHPVLSFAQLVSFTIFVPIVLMNLLIGLAVGDIAEVQKHASLKRIAMQVELHTSLEKKLPLWFLRKVDQKSTIVYPNKPRSGGMLFHIFCFLFCTGEIRQEIPNADKSLEMEILKQKYRLKDLTFLLEKQHELIKLIIQKMEIISETEDDDSHCSFQDRFKKEQMEQRNSRWNTVLRAVKAKTHHLEP
In the case of B1, the “stoichiometry N” value is reported as 4.
